# T1: GST-TORC2 (aa 161-181), wild-type, Q53ET0 (not fully specified)
# T1 chain: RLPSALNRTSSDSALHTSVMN
# B1: Salt Inducible Kinase 2 (SIK2) (protein)
# chain: MVMADGPRHLQRGPVRVGFYDIEGTLGKGNFAVVKLGRHRITKTEVAIKIIDKSQLDAVNLEKIYREVQIMKMLDHPHIIKLYQVMETKSMLYLVTEYAKNGEIFDYLANHGRLNESEARRKFWQILSAVDYCHGRKIVHRDLKAENLLLDNNMNIKIADFGFGNFFKSGELLATWCGSPPYAAPEVFEGQQYEGPQLDIWSMGVVLYVLVCGALPFDGPTLPILRQRVLEGRFRIPYFMSEDCEHLIRRMLVLDPSKRLTIAQIKEHKWMLIEVPVQRPVLYPQEQENEPSIGEFNEQVLRLMHSLGIDQQKTIESLQNKSYNHFAAIYFLLVERLKSHRSSFPVEQRLDGRQRRPSTIAEQTVAKAQTVGLPVTMHSPNMRLLRSALLPQASNVEAFSFPASGCQAEAAFMEEECVDTPKVNGCLLDPVPPVLVRKGCQSLPSNMMETSIDEGLETEGEAEEDPAHAFEAFQSTRSGQRRHTLSEVTNQLVVMPGAGKIFSMNDSPSLDSVDSEYDMGSVQRDLNFLEDNPSLKDIMLANQPSPRMTSPFISLRPTNPAMQALSSQKREVHNRSPVSFREGRRASDTSLTQGIVAFRQHLQNLARTKGILELNKVQLLYEQIGPEADPNLAPAAPQLQDLASSCPQEEVSQQQESVSTLPASVHPQLSPRQSLETQYLQHRLQKPSLLSKAQNTCQLYCKEPPRSLEQQLQEHRLQQKRLFLQKQSQLQAYFNQMQIAESSYPQPSQQLPLPRQETPPPSQQAPPFSLTQPLSPVLEPSSEQMQYSPFLSQYQEMQLQPLPSTSGPRAAPPLPTQLQQQQPPPPPPPPPPRQPGAAPAPLQFSYQTCELPSAASPAPDYPTPCQYPVDGAQQSDLTGPDCPRSPGLQEAPSSYDPLALSELPGLFDCEMLDAVDPQHNGYVLVN
# Legend:
# [1] = target: GST-TORC2 (aa 161-181) Ser171Ala, Q53ET0
# [2] = target: T1, GST-TORC2 (aa 161-181), wild-type, …
# GST-TORC2 (aa 161-181) Ser171Ala, Q53ET0, sequence (Q53ET0 whole entry S171A, looked up, the tested form may be a part): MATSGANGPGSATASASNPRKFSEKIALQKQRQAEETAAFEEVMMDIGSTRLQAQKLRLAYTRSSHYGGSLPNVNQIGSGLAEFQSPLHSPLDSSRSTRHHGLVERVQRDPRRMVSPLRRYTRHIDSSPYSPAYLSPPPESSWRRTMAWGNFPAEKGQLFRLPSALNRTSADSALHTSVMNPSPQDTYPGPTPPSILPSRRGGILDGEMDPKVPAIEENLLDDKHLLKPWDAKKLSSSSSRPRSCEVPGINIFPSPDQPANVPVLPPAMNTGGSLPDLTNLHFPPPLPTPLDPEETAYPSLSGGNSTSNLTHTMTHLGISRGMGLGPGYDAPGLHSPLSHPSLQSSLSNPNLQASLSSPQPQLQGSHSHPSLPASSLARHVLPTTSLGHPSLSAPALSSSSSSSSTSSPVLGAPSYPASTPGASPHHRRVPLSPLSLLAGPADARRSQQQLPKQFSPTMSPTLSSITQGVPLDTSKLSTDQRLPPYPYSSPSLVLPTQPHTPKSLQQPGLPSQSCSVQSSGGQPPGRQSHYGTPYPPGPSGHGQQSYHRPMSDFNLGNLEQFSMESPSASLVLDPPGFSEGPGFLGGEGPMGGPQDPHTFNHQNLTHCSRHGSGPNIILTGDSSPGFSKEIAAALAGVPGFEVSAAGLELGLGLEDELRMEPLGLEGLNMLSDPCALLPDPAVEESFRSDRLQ
protein,measurement,setting,value
B1,"in vitro kinase assay, 32P-labeling",[1],SIK2 was found to phosphorylate wild-type but not Ser171Ala mutant TORC2 in vitro
same,"in vitro kinase assay, 32P-labeling",[2],SIK2 was found to phosphorylate wild-type but not Ser171Ala mutant TORC2 in vitro

# Reference: patent publication US20100190693
